Test [1] relates to rituximab, trastuzumab, bevacizumab, and muromonab. Put plainly: Biacore surface plasmon resonance, albumin peptide library against antibodies. To be noted: peptides at 50-1.25 μg/mL in HBS running buffer. The class given is binding. How it is done:
(§1) An albumin peptide library was constructed with 18 amino acid peptides, each containing a 6 amino acid overlap, and each albumin peptide was run against rituximab fixed on a CMS chip. Peptides were suspended to 5-10 mg/mL in HBS-EP plus running buffer. Water insoluble peptides were dissolved in 10% DMSO (Sigma-Aldrich, St. Louis, Mo.). Rituximab was immobilized onto Biacore CMS (GE Healthcare, Chicago, Ill.) chips via amine coupling. Biacore X-100 (GE Healthcare, Chicago, Ill.) was used to screen the albumin peptide libraries over immobilized rituximab. Peptides were screened from 1-50 μg/mL with an exposure time of 120 seconds. Biacore X100 software was used to determine binding kinetics.
Peptides were run at 50, 25, 10, 5, 2.5, 1.25 μg/mL in HBS running buffer. Dissociation constants were determined by Biacore Evaluation Software. […] Diana, F. J., Veronich, K. & Kapoor, A. L. Binding of nonsteroidal anti-inflammatory agents and their effect on binding of racemic warfarin and its enantiomers to human serum albumin. J Pharm Sci 78, 195-199 (1989); Sudlow, G., Birkett, D. J. & Wade, D. N. The characterization of two specific drug binding sites on human serum albumin. Mol Pharmacol 11, 824-832 (1975).
(In general: Surface plasmon resonance follows binding to a sensor surface in real time, without labels.)

The test system of test [2] is antibody complexation with ABX (bevacizumab). Briefly: Peptide competition assay on nanoparticle formation with bevacizumab. The note with it: 10-fold molar excess of peptide. How it is done: Peptides were added at a 10-fold molar excess compared to antibody. Diameter was measured using a Malvern Nanosizer at a 1:200 dilution.
A similar experiment was performed using bevacizumab (FIG. 14B).

A further test addresses full HSA protein (Homo sapiens, UniProt P02768). Briefly: Biacore surface plasmon resonance, antibody peptide binding to HSA. The source says: FIG. 13B represents binding of bevacizumab variable peptide 1 (SEQ ID NO.: 7) to HSA.
(§2) The sequence of the variable region of the heavy chain where the binding site is located is provided in FIG. 13F for both bevacizumab (SEQ ID NO.: 1) and rituximab (SEQ ID NO.: 2). The 19-AA region of interest is underlined for bevacizumab (SEQ ID NO.: 8—[…]) and rituximab (SEQ ID NO.: 10—[…]), and share about 80% identity. FIG. 13G provides the sequences from each antibody that bind HSA.

The target in test [3] is CD20 (membrane bound, on Daudi cells) (human) (UniProt P11836). Put plainly: flow cytometry on Daudi cells, ABX labelled with Alexa fluor 488.
For test [4] the target is unchanged. Put plainly: flow cytometry, Daudi cells stained with Alexa-fluor 488 AR160 alone (middle panel, upper right quadrant). (Flow cytometry measures light scatter and fluorescence of single cells or particles in a stream.)
The target is the same in test [5]. Briefly: flow cytometry, Daudi cells stained with Alexa-fluor 488 AR160 and PE anti-human CD19 (right panel, upper left quadrant).
Test [6] has the same target. Briefly: flow cytometry, Daudi cells stained with Alexa-fluor 488 AR160 and PE anti-human CD19 (right panel, upper right quadrant).
The target is the same in test [7]. Briefly: blocking assay by flow cytometry: Daudi cells pre-treated with AR160, washed, stained with PE-mouse anti-human CD20 (the blocked antibody).
Test [8] shares this target. Briefly: blocking assay by flow cytometry: Daudi cells pre-treated with lab-made AR160, then stained with labelled anti-human CD20 (the blocked antibody).
Test [9] shares this target. Put plainly: blocking assay by flow cytometry: Daudi cells pre-treated with pharmacy-made AR160 batch 1, then stained with labelled anti-human CD20 (the blocked antibody).
The target is the same in test [10]. Put plainly: flow cytometry on Daudi cells (negative control).
For test [11] the target is unchanged. Put plainly: flow cytometry of Daudi cells, isotype control (negative control).
A further test deals with T1, HSA peptide 4 (Homo sapiens, UniProt P02768).
T1 construct: An albumin peptide library was constructed with 18 amino acid peptides
Briefly: Biacore surface plasmon resonance, antibody binding to HSA peptide 4. As to the method: as §1, §2

For another test, the target named is HSA peptide 40 (Homo sapiens, UniProt P02768). Put plainly: Biacore surface plasmon resonance, antibody binding to HSA peptide 40. How it is done:
as §1, §2

Test [12] concerns the target CD20 (membrane bound, on Daudi cells) (human) (UniProt P11836). Put plainly: blocking assay by flow cytometry: Daudi cells pre-treated with ABX, then stained with labelled anti-human CD20.
Test [13] shares this target. Put plainly: blocking assay by flow cytometry: Daudi cells pre-treated with ABX, washed, stained with PE-mouse anti-human CD20.
A further test has as its target T2, ABRAXANE® (ABX) (Homo sapiens, UniProt P02768).
T2 construct: purchased Celgene, Summit, N.J
Put plainly: Binding of antibody to ABX, dissociation constant.

The target of a further test is T3, CD20 (Homo sapiens, UniProt P11836).
T3 construct: host or cells: Daudi
T3 sequence (P11836 1-297): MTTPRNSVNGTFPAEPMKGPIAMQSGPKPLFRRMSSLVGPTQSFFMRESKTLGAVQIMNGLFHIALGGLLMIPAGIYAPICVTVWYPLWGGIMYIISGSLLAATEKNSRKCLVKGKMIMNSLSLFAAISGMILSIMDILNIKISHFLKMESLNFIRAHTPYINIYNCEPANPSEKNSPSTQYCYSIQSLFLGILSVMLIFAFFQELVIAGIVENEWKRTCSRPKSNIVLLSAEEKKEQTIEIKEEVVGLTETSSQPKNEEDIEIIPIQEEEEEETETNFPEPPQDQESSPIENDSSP
Briefly: Blocking of PE-mouse anti-human CD20 binding to CD20+ Daudi cells (flow cytometry). The class given is cell-based. The note with it: Daudi cells pre-incubated with test article. As to the method:
After incubation, the cells were washed and stained with PE-mouse anti-human CD20 and enumerated by flow cytometry.

The subject of the next test is CD20+ Daudi cells. Put plainly: In vitro toxicity assay, EdU proliferation of Daudi cells. The class given is cell-based, human. To be noted: rituximab 0-200 μg/mL overnight. How it is done: The level of proliferation was determined by staining cells with FITC labeled anti-EdU. The proliferation index was calculated by normalization to the untreated positive control.
Cell proliferation was measured with EdU, a thymidine analog, that was detected with a FITC conjugated anti-EdU and enumerated by flow cytometry.
The human B-cell lymphoma line, Daudi, (ATCC Manassa, Va.) were cultured in RPMI with 1% penicillin, streptomycin and glutamine (PSG) and 10% FBS. Cells were harvested and plated at 0.2×10^6 cells per well in 24 well plates. […] To measure proliferation, the Click-iT EdU (Molecular Probes, Eugene, Oreg.) kit was utilized. […] The cells were permeabilized with 1% saponin and intercalated EdU was labeled with a FITC-conjugated antibody. The proliferation index was determined by dividing the FITC positive cells from each treatment by the maximum proliferation of untreated EdU labeled cells.

The subject of test [14] is Daudi human lymphoma cells. Put plainly: Daudi human lymphoma xenograft tumor efficacy. The class given is in vivo, athymic nude mice. To be noted: intravenous. How it is done: To test tumor efficacy, 5×10^6 Daudi human lymphoma cells were implanted into the right flank of athymic nude mice (Harlan Sprague Dawley, Indianapolis, Ind.). […] Tumor size was monitored 2-3 times/week and tumor volume was calculated with the following equation: (length*width^2)/2. Mice were sacrificed when the tumor size equaled 10% of the mouse body weight, or about 2500 mm^3. The day 10 percent change from baseline was calculated as follows: [(tumor size on treatment day-tumor size on day 10)/tumor size on treatment day]*100. Kaplan Meier curves were generated and median survival was calculated using GraphPad Prism software (GraphPad Software, Inc, La Jolla, Calif.).
(Xenograft models place foreign cells or tissue in a host animal.)

Test [15] addresses T4, human serum albumin (HSA) (human, UniProt P02768 25-609).
T4 construct: also called full HSA protein
Put plainly: SPR (Biacore) of antibody variable-region peptides with full HSA.

In the case of “HSA peptide 40: HSA amino acids 455-472, SEQ ID NO.: 5; maps to the Sudlow II site”, the “binding to the antibodies” value in test [1] is “found to bind the antibodies”. The “effect on particle size increase indicative of antibody complexation with ABX” value in [2] is given as “prevent the 30 nm increase in particle size”.

For “muromonab peptide: peptide from muromonab corresponding to the albumin-binding region; probably SEQ ID NO.: 12 (DDHYCLDYWGQGTTLTVSSA)”, the “binding to the full HSA protein” value with full HSA protein is listed as “did not bind”.

“AR160 (rituximab-albumin-paclitaxel nanoparticle complex) (from UniProt P02768 25-609)” yielded a % positive cells in test [3] of 75%. The % of cells in the AR160+ CD19+ quadrant in test [4] is 15.8%; in [6] it was 73.8%. In test [5], this molecule gave a % of cells in the AR160+ CD19- quadrant of 3.95%. Besides, the % cells in the CD20+ gate after pre-treatment in [7] was 6.6%; in test [8], 6.6%; in [9], 8.2%.

In the case of isotype control antibody, in test [10], the % positive cells amounted to 6.2%. In addition, in test [11], the % cells in the CD20+ gate worked out at 6.2%.

For muromonab, in the test with HSA peptide 4, the “binding to HSA peptide 4” value is “bound”. Further, the “binding to HSA peptide 40” value with HSA peptide 40 is “bound”.

With “ABRAXANE® (albumin-bound paclitaxel nanoparticles) (from UniProt P02768 25-609)”, the % cells in the CD20+ gate after pre-treatment in [12] and in test [13] was 82.9% in each case.

Consider “Bev Peptide 1: bevacizumab peptide, amino acids 111-125, SEQ ID NO.: 7 (DTAVYYCAKYPHYYGSSHWYF)”, for which the “effect on particle size increase indicative of antibody complexation with ABX” value in [2] is recorded as “prevent the 30 nm increase in particle size”.

For the molecule rituximab, in the test with ABRAXANE® (ABX), the “binding affinity to ABX” value is recorded as “bind with a high affinity” and the “dissociation constant for ABX” value is “in the picomolar range”. For the same molecule, the “inhibition of subsequent binding of anti-human CD20 antibody” value with CD20 is “prohibit subsequent binding of the anti-human CD20 antibody”. In the test on CD20+ Daudi cells, the “toxicity to Daudi cells” value was “not toxic”. In addition, in test [14] (RIT 12 mg/kg), the median survival was found to be 8 days, the “mice having responses by day 10” value came out at 0% and the “percentage of mice alive at day 10” value is reported as 12%. Besides, in test [14] (RIT 18 mg/kg), the median survival is given as 10.5 days, the “mice having responses by day 10” value was 0% and the “percentage of mice alive at day 10” value was 38%.

On to bevacizumab, for which the “binding affinity to ABX” value in the test with ABRAXANE® (ABX) was “bind with a high affinity”.

In the case of DDHYCLDYWGQGTTLTVSSA [muromonab peptide], the binding result in test [15] is on record as “no binding”.
